Measured values: patent US20240376208A1 (AFFIMED, published 2024)

Columns and labels:
[1] = target: T1, His-tagged human BCMA extracellular domain (human, UniProt Q02223 1-54); test: ELISA, construct captured on coated His-tagged human BCMA extracellular domain
T1 construct: extracellular domain; Coated at 0.4 ug/mL to capture the BCMA-targeting constructs; not shown: His tag
T1 sequence (looked up): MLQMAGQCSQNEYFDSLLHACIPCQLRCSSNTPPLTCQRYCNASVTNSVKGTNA

[2] = target: T2, biotinylated monomeric CD16A antigen (human, UniProt P08637 17-208, limits assumed, biotinylated (site not stated)); test: ELISA, biotinylated monomeric CD16A titrated on coated construct
T2 construct: Soluble antigen; also called soluble CD16A antigen

[3] = target: T3, biotinylated dimeric CD16A antigen (human, UniProt P08637 17-208, limits assumed, biotinylated (site not stated)); test: ELISA, biotinylated dimeric CD16A titrated on coated construct
T3 construct: Soluble antigen; also called soluble CD16A antigen

[4] = target: T4, recombinant CD16A 158F fused to monomeric human Fc (human, UniProt P08637 17-208); test: ELISA, construct titrated on coated CD16A 158F fused to monomeric human Fc
T4 construct: also called recombinant CD16 antigen variant; not shown: monomeric human Fc

[5] = target: T3, biotinylated dimeric CD16A antigen; test: ELISA, biotinylated dimeric CD16A titrated on construct captured by coated His-tagged human BCMA extracellular domain
Description: (§1) For the capturing approach, 96-well ELISA plates (Immuno Maxisorp, Nunc) were coated overnight at 4° C. with His-tagged human EGFR or BCMA extracellular domain at concentrations of 3.0 or 0.4 μg/mL, respectively. After blocking with 3% (w/v) skimmed milk powder dissolved in phosphate buffered saline (PBS), antigen coated plates were used for capturing of different multivalent bispecific engagers at concentrations of 3-5 μg/mL in PBS containing 0.3% (w/v) skimmed milk powder. After washing three times with 300 μL per well of PBS containing 0.1% (v/v) Tween 20, plates were incubated with serial dilutions of biotinylated dimeric or monomeric CD16A antigen in PBS containing 0.3% (w/v) skimmed milk powder for 1.5 h at room temperature. After washing, plates were incubated with the detection conjugate Streptavidin HRP, 1:10,000 diluted in PBS containing 0.3% (w/v) skimmed milk powder for 1 h followed by washing and incubation with tetramethylbenzidine substrate (Seramun) for 1-2 min. Reaction was stopped by addition of 0.5 M H₂SO₄ (100 μL/well). Absorbance was measured at 450 nm using a multiwell plate reader, plotted and EC₅₀ values were determined by fitting a nonlinear regression model to sigmoidal dose-response curves (four parameters logistic fit) using GraphPad Prism software.
(§2) Concentration dependent binding of antibody constructs to coated recombinant CD16A antigen, or of soluble monomeric or dimeric CD16 antigen variants to coated or target antigen captured antibody constructs was analyzed in ELISA. Half maximal binding concentrations (EC₅₀) were determined by fitting a nonlinear regression model to sigmoidal dose-response curves (four parameters logistic fit) using GraphPad Prism software.

[6] = target: recombinant CD16A 158V fused to monomeric human Fc (human, UniProt P08637 17-208); test: ELISA, construct titrated on coated CD16A 158V fused to monomeric human Fc
[7] = target: T2, biotinylated monomeric CD16A antigen; test: ELISA, biotinylated monomeric CD16A titrated on construct captured by coated His-tagged human BCMA extracellular domain
Description: as §1, §2

T2 sequence (P08637 17-208 limits assumed): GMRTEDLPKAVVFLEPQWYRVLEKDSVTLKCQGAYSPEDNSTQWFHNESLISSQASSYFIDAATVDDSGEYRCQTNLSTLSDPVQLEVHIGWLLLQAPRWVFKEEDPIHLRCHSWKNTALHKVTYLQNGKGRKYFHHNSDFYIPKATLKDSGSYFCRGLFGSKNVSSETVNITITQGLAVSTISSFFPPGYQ
T3 sequence (P08637 17-208 limits assumed): as above
Sequence of recombinant CD16A 158V fused to monomeric human Fc (P08637 17-208 F176V): as the sequence (P08637 17-208 limits assumed) above, with F160V counted along it
T4 sequence (P08637 17-208): as the sequence (P08637 17-208 limits assumed) above

B1: scFv-IgAb_18 (bispecific antibody)
heavy: EVQLLESGGGLVQPGGSLRLSCAASGFTFSNYDMAWVRQAPGKGLEWVSSISTRGDITSYRDSVKGRFTISRDNSKNTLYLQMNSLRAEDTAVYYCARQDYYTDYMGFAYWGQGTLVTVSSASTKGPSVFPLAPSSKSTSGGTAALGCLVKDYFPEPVTVSWNSGALTSGVHTFPAVLQSSGLYSLSSVVTVPSSSLGTQTYICNVNHKPSNTKVDKKVEPKSCDKTHTCPPCPAPEFEGGPSVFLFPPKPKDTLMISRTPEVTCVVVAVSHEDPEVKFNWYVDGVEVHNAKTKPREEQYNSTYRVVSVLTVLHQDWLNGKEYKCKVSNKALPAPIEKTISKAKGQPREPQVYTLPPSREEMTKNQVSLTCLVKGFYPSDIAVEWESNGQPENNYKTTPPVLDSDGSFFLYSKLTVDKSRWQQGNVFSCSVMHEALHNHYTQKSLSLSPGGGGGSGGGGSGGGGSGGGGSGGGGSGGGGSSYVLTQPSSVSVAPGQTATISCGGHNIGSKNVHWYQQRPGQSPVLVIYQDNKRPSGIPERFSGSNSGNTATLTISGTQAMDEADYYCQVWDNYSVLFGGGTKLTVLGGSGGSGGSGGSGGSGGSGGSQVQLVQSGAEVKKPGESLKVSCKASGYTFTSYYMHWVRQAPGQGLEWMGAIEPMYGSTSYAQKFQGRVTMTRDTSTSTVYMELSSLRSEDTAVYYCARGSAYYYDFADYWGQGTLVTVSS
light: AIQMTQSPSSLSASVGDRVTITCRASEDIYNGLAWYQQKPGKAPKLLIYGASSLQDGVPSRFSGSGSGTEFTLTISSLQPEDEATYYCAGPHKYPLTFGGGTKVEIKRTVAAPSVFIFPPSDEQLKSGTASVVCLLNNFYPREAKVQWKVDNALQSGNSQESVTEQDSKDSTYSLSSTLTLSKADYEKHKVYACEVTHQGLSSPVTKSFNRGEC
Does B1 bind [1]?
Result: binds

And the EC50 [2]?
Its EC50 is 13.1 nM.

What about the EC50 [3] of the same binder?
Its EC50 is 2.31 nM.

What about the EC50 [4] of the same binder?
Its EC50 is 0.54 nM.

And the EC50 [5]?
The EC50 was 0.74 nM.

And the EC50 [6]?
The EC50 was 0.31 nM.

What about the EC50 [7] of the same binder?
The EC50 was 1.98 nM.
